Laboratory results published in patent US20240294569A1, “MODULATORS OF SORTILIN ACTIVITY” (Insusense ApS, priority 2021, published 2024).

These substances were tested against 6his-Sortilin (human) (UniProt Q99523) (assay: SPA, displacement of [3H]-neurotensin from 6his-Sortilin).
With “(S)-2-((S)-2-((S)-3-(4-Hydroxyphenyl)-2-((S)-pyrrolidine-2-carboxamido)propanamido)-3-(1H-indol-3-yl)propanamido)-5,5-dimethylhexanoic acid (peptide)” the IC50 was 60 nM. In the case of “(S)-2-((S)-2-((S)-3-(4-Hydroxyphenyl)-2-((S)-pyrrolidine-2-carboxamido)propanamido)-3-(pyridin-3-yl)propanamido)-5,5-dimethylhexanoic acid (peptide)”, the IC50 is reported as 90 nM. “(S)-2-((S)-2-((S)-3-(4-Hydroxyphenyl)-2-((S)-pyrrolidine-2-carboxamido)propanamido)-3-(pyridin-4-yl)propanamido)-5,5-dimethylhexanoic acid (peptide)” showed an IC50 of 200 nM. “(S)-2-((S)-2-((S)-3-(4-Hydroxyphenyl)-2-((S)-pyrrolidine-2-carboxamido)propanamido)-3-(thiazol-4-yl)propanamido)-5,5-dimethylhexanoic acid (peptide)” was tested, and the IC50 was 70 nM. “(S)-2-((S)-2-((S)-3-(4-Hydroxyphenyl)-2-((S)-pyrrolidine-2-carboxamido)propanamido)-3-(thiophen-3-yl)propanamido)-5,5-dimethylhexanoic acid (peptide)” was tested, and the IC50 was 140 nM. In the case of “(S)-2-((S)-2-((S)-3-(4-Hydroxyphenyl)-2-((S)-pyrrolidine-2-carboxamido)propanamido)-3-morpholinopropanamido)-5,5-dimethylhexanoic acid (peptide)”, the IC50 is reported as 160 nM. Substance “(S)-2-((S)-2-((S)-4-Amino-4-oxo-2-((S)-pyrrolidine-2-carboxamido)butanamido)-3-(thiazol-4-yl)propanamido)-5,5-dimethylhexanoic acid (peptide)” has an IC50 of 90 nM. For “(S)-2-((S)-2-((S)-5-Amino-5-oxo-2-((S)-pyrrolidine-2-carboxamido)pentanamido)-3-(thiazol-4-yl)propanamido)-5,5-dimethylhexanoic acid (peptide)”, the IC50 was 60 nM.
